# Test results taken from IntAct's records for PubMed 16963558.
# B1: Non-structural protein 1 (Influenza A virus (strain A/Puerto Rico/8/1934 H1N1)), P03496 (parent)
# chain: MDPNTVSSFQVDCFLWHVRKRVADQELGDAPFLDRLRRDQKSLRGRGSTLGLDIETATRAGKQIVERILKEESDEALKMTMASVPASRYLTDMTLEEMSRDWSMLIPKQKVAGPLCIRMDQAIMDKNIILKANFSVIFDRLETLILLRAFTEEGAIVGEISPLPSLPGHTAEDVKNAVGVLIGGLEWNDNTVRVSETLQRFAWRSSNENGRPPLTPKQKREMAGTIRSEV
# Variants of: B1
# Settings: with p85b_human PIK3R2, O00459
# p85b_human PIK3R2, O00459, sequence (O00459 whole entry): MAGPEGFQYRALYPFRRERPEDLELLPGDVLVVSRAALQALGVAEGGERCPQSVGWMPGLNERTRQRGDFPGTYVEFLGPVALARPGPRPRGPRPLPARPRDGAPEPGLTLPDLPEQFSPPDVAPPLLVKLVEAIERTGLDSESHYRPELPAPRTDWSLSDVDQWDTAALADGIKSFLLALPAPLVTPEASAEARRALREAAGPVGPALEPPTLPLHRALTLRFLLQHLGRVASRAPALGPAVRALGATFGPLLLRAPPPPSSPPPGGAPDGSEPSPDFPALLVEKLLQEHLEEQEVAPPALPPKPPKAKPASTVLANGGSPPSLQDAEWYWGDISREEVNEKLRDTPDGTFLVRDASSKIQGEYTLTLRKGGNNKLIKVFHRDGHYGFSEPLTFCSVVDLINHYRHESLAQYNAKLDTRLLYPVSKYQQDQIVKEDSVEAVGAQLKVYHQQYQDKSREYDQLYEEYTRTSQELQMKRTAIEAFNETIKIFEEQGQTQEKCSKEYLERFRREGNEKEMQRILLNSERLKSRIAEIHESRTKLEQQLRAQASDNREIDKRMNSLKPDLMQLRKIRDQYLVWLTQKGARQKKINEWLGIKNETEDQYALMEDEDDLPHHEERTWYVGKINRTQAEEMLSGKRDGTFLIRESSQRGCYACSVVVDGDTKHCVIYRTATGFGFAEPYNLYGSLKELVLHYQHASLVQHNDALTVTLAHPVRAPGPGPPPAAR
row,Variant,effect of a mutation on the interaction
1,M93A,disrupting interaction strength
2,Y89F,disrupting interaction strength

# Variants of: B1
# Settings: with p85b_bovin PIK3R2, P23726
# p85b_bovin PIK3R2, P23726, sequence (P23726 whole entry): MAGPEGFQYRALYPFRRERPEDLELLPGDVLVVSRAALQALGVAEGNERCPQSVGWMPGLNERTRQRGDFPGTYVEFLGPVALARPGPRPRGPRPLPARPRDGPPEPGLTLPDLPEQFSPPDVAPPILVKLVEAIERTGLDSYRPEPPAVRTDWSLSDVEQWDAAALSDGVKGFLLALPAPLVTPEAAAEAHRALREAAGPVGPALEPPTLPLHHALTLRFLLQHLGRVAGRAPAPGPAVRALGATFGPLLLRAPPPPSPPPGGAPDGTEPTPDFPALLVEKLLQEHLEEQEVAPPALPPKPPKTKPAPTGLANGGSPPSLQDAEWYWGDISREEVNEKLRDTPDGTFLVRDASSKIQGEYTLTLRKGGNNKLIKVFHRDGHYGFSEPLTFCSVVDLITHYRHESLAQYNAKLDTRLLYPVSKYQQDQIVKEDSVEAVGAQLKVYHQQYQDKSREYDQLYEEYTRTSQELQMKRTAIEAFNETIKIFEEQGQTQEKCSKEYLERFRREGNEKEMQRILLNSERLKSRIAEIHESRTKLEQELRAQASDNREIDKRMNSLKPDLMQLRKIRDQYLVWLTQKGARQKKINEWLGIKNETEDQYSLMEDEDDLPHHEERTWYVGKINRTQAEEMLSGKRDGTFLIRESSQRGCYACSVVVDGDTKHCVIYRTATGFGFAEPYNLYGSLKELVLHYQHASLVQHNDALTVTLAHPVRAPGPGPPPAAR
row,Variant,effect of a mutation on the interaction
1,Y89F,disrupting interaction strength
